# Data reported in paper PMC11686378, “Communication between DNA polymerases and Replication Protein A within the archaeal replisome” (Nature Communications, 2024).
# T1: RPA^ΔWH (Rpa1/Rpa2(1-179)/Rpa3), RPA lacking the winged-helix domain of Rpa2 (Pyrococcus abyssi)
# T1 chain 1: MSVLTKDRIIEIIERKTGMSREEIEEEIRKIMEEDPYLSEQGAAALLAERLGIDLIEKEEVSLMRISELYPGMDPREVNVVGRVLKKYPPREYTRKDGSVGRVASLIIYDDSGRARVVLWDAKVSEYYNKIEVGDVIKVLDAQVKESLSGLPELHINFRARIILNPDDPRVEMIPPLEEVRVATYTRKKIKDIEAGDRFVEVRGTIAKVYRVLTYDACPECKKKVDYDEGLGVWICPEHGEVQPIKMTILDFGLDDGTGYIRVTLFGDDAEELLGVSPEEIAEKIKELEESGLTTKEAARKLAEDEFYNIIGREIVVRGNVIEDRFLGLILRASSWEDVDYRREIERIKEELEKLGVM
# T1 chain 2: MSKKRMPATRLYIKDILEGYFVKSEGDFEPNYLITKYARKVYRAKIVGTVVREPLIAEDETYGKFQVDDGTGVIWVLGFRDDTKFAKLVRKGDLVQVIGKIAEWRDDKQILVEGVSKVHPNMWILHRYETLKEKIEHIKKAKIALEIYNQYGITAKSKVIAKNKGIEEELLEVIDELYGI
# T1 chain 3: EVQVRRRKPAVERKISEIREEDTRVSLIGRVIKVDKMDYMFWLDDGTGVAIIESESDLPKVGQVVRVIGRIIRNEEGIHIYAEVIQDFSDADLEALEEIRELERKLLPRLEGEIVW
# B1: DNA primase PriSL (PriS-PriL heterodimer) from P. abyssi, in solution (complex, Pyrococcus abyssi)
# chain 1: MLLREVTKEERKEFYSNEWNAKQIPDFILQNLDKREFGFDHTGEGPSDRKNSYTDVRDLEDYIKATAPYAVYSSVAFYEKPQEMEGWLGAELVFDIDAKDLPLRRCNHEPGKVCPICLNDAKEIARDTLIVLKEELGFEDVHVVYSGRGYHIRVMDGWALSLDSKSRERILSFISASEIEDHSEFRKMLLERRGWFVLNHGYPRVFRLRFGYFILRVKVEHLINFGIRKNIAKRILDNKETIYEEFVRKGILAAFPDGVGIESLAKLFALSTRFSKAYFDGRVTVDLKRILRLPSTLHSKVGLIAKYIGNNERDVMRFNPFKHAVPKFRRKEVKEEYKRFLEENF
# chain 2: MLDPFSEKAKELLKEFGSINDFLNSIPRIVDVEEVIERVKIASDRKLLEGFVDIEDIKDLAQFYALLGALSYSPYGLELELVKKANILLYSERIRREKEIRPEEISLRINKAIEFPIDDLKKIERVFGKLPEYTIHLAEFLDLIPGERLSEYYIYNGNVYLRKEDLIKVWMKAFERNIEKSVNMLYEIRDELPGFFREVLGGIKEVAEQEFGKSGEVKAGTLRPDLFPPCVKNALKGVPQGLRNYAITVLLTSFLSYARICPNPPRRNVRVKDCIDDIRIITDEILPLIIEAANRCSPPLFEDQPNEIKNIWYHLGFGYTANPKLEDSGNSTWYFPPNCDKIRANAPQLCTPDKHCKYVRNPLTYYLRRLYLEGRKNASKGGNERGEKRVLQQ
# notes: PriS, catalytic small subunit of the DNA primase, Pyrococcus abyssi; PriL, large subunit of the DNA primase, Pyrococcus abyssi, with its C-terminal 4Fe-4S domain; Analyte in BLI on His-Rpa2^WH and on RPA-ssDNA filaments; also called full-length PriSL; source: E. coli BL21 Star (DE3), polycistronic PriS-PriL, purified (heat 60 °C, HisTrap, heparin, SEC)
# What was measured:
# Details in all cases: both partners purified
# [1] = target: T1, RPA^ΔWH (Rpa1/Rpa2(1-179)/Rpa3), RPA …; test: BLI; RPA or RPA^ΔWH nucleoprotein filaments on a 3'-TEG-biotin 50-nt ssDNA held on streptavidin sensors; PriSL (1.56-100 nM) or PolD (15.62-1000 nM) in solution; steady-state analysis; 25 °C, buffer E with 0.2 mg/ml BSA
# [2] = target: T2, Replicative DNA polymerase PolD (DP1-DP2 heterodimer) from P. abyssi, in solution (Pyrococcus abyssi); test: BLI; histidine-tagged Rpa2^WH captured on Ni-NTA sensors; PriSL (7.81-500 nM) or PolD (15.62-1000 nM) in solution; steady-state analysis; 25 °C, buffer E with 0.2 mg/ml BSA
# T2 construct: DP1, proofreading small subunit of DNA polymerase D, Pyrococcus abyssi; DP2, polymerization large subunit of DNA polymerase D, Pyrococcus abyssi; also called unlabeled PolD; source: E. coli BL21 Star (DE3), purified (heat 60 °C, HisTrap, heparin, SEC)
# [3] = target: B1; test: as above
fold weaker interaction than with wild-type RPA filaments (at 12.5 nM PriSL) [1] [fold],Kd [2] [nM],Kd [3] [nM],Binder
7,–,–,B1
–,98 ± 49,25 ± 9,"Histidine-tagged Rpa2^WH (Rpa2 residues 178-268), C-terminal winged-helix domain of P. abyssi Rpa2 (domain or fragment) MGKHHHHSGHHHTGHHHHSGSHHHTSSSASTGENLYFQGTGGIMMEERSIEEPMEELLEEEIPEEKEENELLEKAKEDILNILRQKRTAISRKYILKKLGDKYDEETIDDAITELLAQGEIYEPETGYYKLL"
